Assay results reported in patent US20110150901A1 (published 2011).

B1: β-Klotho-binding monomer bKmutM28 (designed binder)
chain: CPWFHHFKCRNGQRIPLHLVCDGVPDCGDDSDETDCGDSHILPFSTPGPST
B2: β-Klotho walked dimer bKWD01 (designed binder)
chain: CLPDEFQCGSGRCIPQHWLCDGLNDCGDGSDEPPAHCSAPASEPPGSLCRAGEFRCSNGRCVPLTWLCDGEDDCQDNSDEKNCAQPT
B3: β-Klotho walked dimer BK_R1c_D15 (designed binder)
chain: CLPDEFQCGSGRCIPQTWVCDGLNDCGDGSDEPPAHCSAPASEPPGSLCRSNQFTCGNGNCIPQPWVCDGEDDCGDDSDEESCKEHT
B4: BK_RI_D05 (designed binder)
chain: CAAGQFRCHNSDTCLPGAWVCDGDNDCGDNSDEASCQKRTCHSFNQFECRNGQCIPLHLVCDGVPDCGDNSDETDCGDSHILPFSTPGPST
B5: R1c_M31 (designed binder)
chain: CLSDQFTCRSTNICLPLQWVCDGDDDCEDNSDEEDCSAPASEPPGSL
B6: R1c_M33 (designed binder)
chain: CRLNEFPCGSGSCISLHWVCDSVPDCRDDSDETDCPERT
B7: β-Klotho walked dimer BK_R1c_D14 (designed binder)
chain: CLPDEFQCGSGRCIPQTWVCDGLNDCGDGSDEPPAHCSAPASEPPGSLCRSDEFRCGNGRCIPLTWVCDGEDDCQDSSDETGCTTPGHT
B8: R1c_M08 (designed binder)
chain: CGAGQFTCRDTNICISRAWRCDGVDDCEDNSDEADCSQDPEFHKV

Assays:
[1] = biological target: T1, recombinant human β-Klotho (UniProt Q86Z14 53-996); test: ELISA
[2] = biological target: T1, recombinant human β-Klotho; test: ELISA; remark: listed apart in the source
[3] = biological target: T1, recombinant human β-Klotho; test: binding
[4] = biological target: huR4; test: ELISA
[5] = biological target: huR1b; test: ELISA
[6] = biological target: huR4; test: Alphascreen inhibition; FGF21/BK+R4

T1 sequence (Q86Z14 53-996): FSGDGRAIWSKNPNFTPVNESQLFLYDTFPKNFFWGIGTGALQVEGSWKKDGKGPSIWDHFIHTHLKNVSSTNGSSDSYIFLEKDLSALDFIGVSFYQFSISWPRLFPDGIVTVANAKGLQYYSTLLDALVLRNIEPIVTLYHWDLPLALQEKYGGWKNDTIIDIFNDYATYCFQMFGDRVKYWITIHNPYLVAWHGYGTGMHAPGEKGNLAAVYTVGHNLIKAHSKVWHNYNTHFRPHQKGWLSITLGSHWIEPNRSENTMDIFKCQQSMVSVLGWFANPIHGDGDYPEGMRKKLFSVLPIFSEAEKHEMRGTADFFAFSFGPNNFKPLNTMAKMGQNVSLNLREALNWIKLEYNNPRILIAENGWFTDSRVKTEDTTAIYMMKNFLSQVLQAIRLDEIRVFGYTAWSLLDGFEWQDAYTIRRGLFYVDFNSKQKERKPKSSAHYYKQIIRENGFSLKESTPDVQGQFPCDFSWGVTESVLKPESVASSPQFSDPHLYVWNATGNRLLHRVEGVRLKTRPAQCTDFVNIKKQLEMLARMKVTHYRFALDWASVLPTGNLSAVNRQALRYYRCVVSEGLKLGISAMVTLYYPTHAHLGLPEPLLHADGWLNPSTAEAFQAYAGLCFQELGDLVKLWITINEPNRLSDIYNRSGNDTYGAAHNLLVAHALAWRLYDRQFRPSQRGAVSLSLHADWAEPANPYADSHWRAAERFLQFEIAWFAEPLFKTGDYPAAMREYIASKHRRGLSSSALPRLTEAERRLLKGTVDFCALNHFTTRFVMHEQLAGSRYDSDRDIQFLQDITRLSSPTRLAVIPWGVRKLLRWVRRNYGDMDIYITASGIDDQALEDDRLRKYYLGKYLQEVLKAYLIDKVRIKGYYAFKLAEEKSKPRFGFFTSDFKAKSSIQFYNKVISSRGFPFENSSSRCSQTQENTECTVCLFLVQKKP

Binder	EC50 [3] [nM]	EC50 [4] [nM]	other results
B1	–	–	EC50 [1]: 214 nM
B2	0.05	–	EC50 [2]: < 0.4 nM
B3	9.1	–	–
B4	–	45.1	–
B5	–	~300	EC50 [5]: 112 nM; IC50 [6]: 5000 nM
B6	–	~300	–
B7	23	–	–
B8	–	–	EC50 [5]: 17 nM
